From paper PMC10404699, “SAMHD1 impairs type I interferon induction through the MAVS, IKKε, and IRF7 signaling axis during viral infection” (The Journal of Biological Chemistry, 2023)

Target: T1, recombinant N-terminal His-tagged full-length SAMHD1 (human, UniProt Q9Y3Z3 1-626)
T1 construct: also called recombinant FL SAMHD1; recombinant SAMHD1
Assay: pull-down; in vitro pull-down of purified recombinant proteins with an anti-SAMHD1 antibody, analyzed by immunoblot; performed as described in ref. 16
Conditions: both partners purified

T1 sequence (Q9Y3Z3 whole entry): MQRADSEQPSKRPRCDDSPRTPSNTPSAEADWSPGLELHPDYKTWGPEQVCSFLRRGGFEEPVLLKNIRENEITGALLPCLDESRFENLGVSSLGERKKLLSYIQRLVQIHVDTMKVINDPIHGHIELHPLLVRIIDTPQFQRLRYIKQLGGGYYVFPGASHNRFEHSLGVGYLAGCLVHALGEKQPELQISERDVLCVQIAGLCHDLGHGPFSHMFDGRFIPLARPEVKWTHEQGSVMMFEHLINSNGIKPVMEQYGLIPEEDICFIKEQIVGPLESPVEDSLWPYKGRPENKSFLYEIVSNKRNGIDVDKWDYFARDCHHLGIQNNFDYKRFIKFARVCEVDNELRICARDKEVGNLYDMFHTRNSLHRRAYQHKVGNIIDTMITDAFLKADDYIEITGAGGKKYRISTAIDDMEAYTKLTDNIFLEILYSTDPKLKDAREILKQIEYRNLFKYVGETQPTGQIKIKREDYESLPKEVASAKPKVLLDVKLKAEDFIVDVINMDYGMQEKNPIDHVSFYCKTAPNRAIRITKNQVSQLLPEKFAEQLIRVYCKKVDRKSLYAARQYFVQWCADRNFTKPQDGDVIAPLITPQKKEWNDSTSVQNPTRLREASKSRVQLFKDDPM

B1: purified His-tagged MAVS without the TM domain (aa 1-513) (domain or fragment, human, UniProt Q7Z434 1-513, looked up)
chain: MPFAEDKTYKYICRNFSNFCNVDVVEILPYLPCLTARDQDRLRATCTLSGNRDTLWHLFNTLQRRPGWVEYFIAALRGCELVDLADEVASVYQSYQPRTSDRPPDPLEPPSLPAERPGPPTPAAAHSIPYNSCREKEPSYPMPVQETQAPESPGENSEQALQTLSPRAIPRNPDGGPLESSSDLAALSPLTSSGHQEQDTELGSTHTAGATSSLTPSRGPVSPSVSFQPLARSTPRASRLPGPTGSVVSTGTSFSSSSPGLASAGAAEGKQGAESDQAEPIICSSGAEAPANSLPSKVPTTLMPVNTVALKVPANPASVSTVPSKLPTSSKPPGAVPSNALTNPAPSKLPINSTRAGMVPSKVPTSMVLTKVSASTVPTDGSSRNEETPAAPTPAGATGGSSAWLDSSSENRGLGSELSKPGVLASQVDSPFSGCFEDLAISASTSLGMGPCHGPEENEYKSEGTFGIHVAENPSIQLLEGNPGPPADPDGGPRPQADRKFQEREVPCHRPSP
notes: also called MAVS without TM; recombinant MAVS without the TM domain; source: bought: Origene (AR50771PU-N); purified from E. coli
B1: binds.
